The record followed here is publication PMC6508567 (2018).

To fix the notation:
B1: β-amylase WT (enzyme)
chain: MEVNVKGNYVQVYVMLPLDAVSVNNRFEKGDELRAQLRKLVEAGVDGVMVDVWWGLVEGKGPKAYDWSAYKQLFELVQKAGLKLQAIMSFHQCGGNVGDAVNIPIPQWVRDVGTCDPDIFYTDGHGTRNIEYLTLGVDNQPLFHGRSAVQMYADYMTSFRENMKEFLDAGVIVDIEVGLGPAGEMRYPSYPQSHGWSFPGIGEFICYDKYLQADFKAAAAAVGHPEWEFPNDVGQYNDTPERTQFFRDNGTYLSEKGRFFLAWYSNNLIKHGDRILDEANKVFLGYKVQLAIKISGIHWWYKVPSHAAELTAGYYNLHDRDGYRTIARMLKRHRASINFTCAEMRDSEQSSQAMSAPEELVQQVLSAGWREGLNVACENALPRYDPTAYNTILRNARPHGINQSGPPEHKLFGFTYLRLSNQLVEGQNYANFKTFVDRMHANLPRDPYVDPMAPLPRSGPEISIEMILQAAQPKLQPFPFQEHTDLPVGPTGGMGGQAEGPTCGMGGQVKGPTGGMGGQAEDPTSGIGGELPATM
B2: serpin Z4 (natural protein)
chain: MATTLATDVRLSIAHQTRFALRLRSAISSNPERAAGNVAFSPLSLHVALSLITAGAAATRDQLVAILGDGGAGDAKELNALAEQVVQFVLANESSTGGPRIAFANGIFVDASLSLKPSFEELAVCQYKAKTQSVDFQHKTLEAVGQVNSWVEQVTTGLIKQILPPGSVDNTTKLILGNALYFKGAWDQKFDESNTKCDSFHLLDGSSIQTQFMSSTKKQYISSSDNLKVLKLPYAKGHDKRQFSMYILLPGAQDGLWSLAKRLSTEPEFIENHIPKQTVEVGRFQLPKFKISYQFEASSLLRALGLQLPFSEEADLSEMVDSSQGLEISHVFHKSFVEVNEEGTEAGAATVAMGVAMSMPLKVDLVDFVANHPFLFLIREDIAGVVVFVGHVTNPLISA

The assay “serpin Z4” deals with B2. The experiment in a line: SPR; serpin Z4 immobilised.
The target in assay [1] is B1. The assay is described as follows: SPR; β-amylase immobilised. A general note: SPR reads the build-up and loss of mass on a sensor chip optically.
For assay [2], the target named is B1. The assay is described as follows: MST; β-amylase labelled, serpin Z4 titrated.

With B1, the off-rate (koff) (commonly the first-order rate constant of dissociation) in the assay with serpin Z4 came to 0.00243 s⁻¹.
B2 yielded a koff in the assay with β-amylase WT [1] of 0.00263 s⁻¹. Also, the affinity in the assay with β-amylase WT [2], expressed as Kd, was 215 nM.
